Results on 1 molecule are retold here after paper PMC3575409, “Identification of a Novel Protein-Protein Interaction Motif Mediating Interaction of GPCR-Associated Sorting Proteins with G Protein-Coupled Receptors” (PLoS ONE, 2013).

Assay [1] concerns the target T1, purified full-length cannabinoid receptor type 2 (CNR2) (human, UniProt P34972 1-360).
T1 construct: human cannabinoid receptor type 2; further tags may be present; also called full-length CNR2; source: P. pastoris, solubilized in DDM/CHS, purified (HisTrap)
Nature of the assay: SPR; competition: 1.1 µM ADRB2 or 0.30 µM CNR2 preincubated at least 1 h with a range of GASP peptide or control peptide, injected over captured GST-tagged central domain of GASP-1; 25°C; endpoint responses 20 s after injection end. The following applies: both partners purified.

In assay [2] the target is T2, purified full-length β2 adrenergic receptor (ADRB2) (human, UniProt P07550 1-413).
T2 construct: human β2 adrenergic receptor; further tags may be present; also called full-length ADRB2; source: P. pastoris, solubilized in DDM/CHS, purified (HisTrap)
Described as above. The following applies: both partners purified.

T1 sequence (P34972 whole entry): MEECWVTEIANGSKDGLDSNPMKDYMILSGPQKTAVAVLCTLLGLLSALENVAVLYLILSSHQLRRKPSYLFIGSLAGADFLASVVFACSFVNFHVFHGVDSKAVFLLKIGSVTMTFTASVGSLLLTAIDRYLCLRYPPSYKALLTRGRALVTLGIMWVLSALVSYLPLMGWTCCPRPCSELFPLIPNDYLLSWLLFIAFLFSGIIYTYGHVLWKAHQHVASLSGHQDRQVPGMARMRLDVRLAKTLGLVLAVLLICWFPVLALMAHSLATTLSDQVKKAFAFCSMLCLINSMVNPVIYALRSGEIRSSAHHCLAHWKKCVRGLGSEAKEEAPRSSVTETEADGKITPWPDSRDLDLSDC

B1: GASP peptide (peptide)
peptide: RVKQEPRFEEEVIIGSWFWAEKEA
notes: 24 amino acids containing the first GASP motif of GASP-2; also called synthetic peptide of 24 amino acids containing the first GASP motif of GASP-2; source: synthetic peptide (Genecust, ≥85% purity)
By IC50 is commonly meant the point on the concentration scale where inhibition reaches its midpoint. For B1, the IC50 in assay [1] and in assay [2] was about 100 µM in each case.
